From FireProtDB (doi:10.1016/j.neuropharm.2010.07.001)
Values joined by “and” are separate entries in the source; they are usually repeats but may differ in a detail not shown here. Equal entries are not always repeated.

B1: Adenosine receptor A2a, P29274 (parent)
chain: MPIMGSSVYITVELAIAVLAILGNVLVCWAVWLNSNLQNVTNYFVVSLAAADIAVGVLAIPFAITISTGFCAACHGCLFIACFVLVLTQSSIFSLLAIAIDRYIAIRIPLRYNGLVTGTRAKGIIAICWVLSFAIGLTPMLGWNNCGQPKEGKNHSQGCGEGQVACLFEDVVPMNYMVYFNFFACVLVPLLLMLGVYLRIFLAARRQLKQMESQPLPGERARSTLQKEVHAAKSLAIIVGLFALCWLPLHIINCFTFFCPDCSHAPLWLMYLAIVLSHTNSVVNPFIYAYRIREFRQTFRKIIRSHVLRQQEPFKAAGTSARVLAAHGSDGEQVSLRLNGHPPGVWANGSAPHPERRPNGYALGLVSGGSAQESQGNTGLPDVELLSHELKGVCPEPPGLDDPLAQDGAGVS

Variants of: B1
Conditions: Homo sapiens; pH 7.5; Thermal; Tris-HCl 50 mM; NaCl 250 mM; structure 5NM2; whole UniProt chain shown

Row | Variant | change of melting temperature, mutant - wild type (higher = more stable)
1 | MPIMGSSVYITVELAIAVLAILGNVLVCWAVWLNSNLQNVTNYFVVSLAAADILVGVLAIPFAITISTGFCAACHGCLFIACFVLVLAQSSIFSLLAIAIDRYIAIRIPLRYNGLVTGTRAAGIIAICWVLSFAIGLTPMLGWNNCGQPKEGKNHSQGCGEGQVACLFEDVVPMNYMVYFNFFACVLVPLLLMLGVYLRIFLAARRQLKQMESQPLPGERARSTLQKEVHAAKSLAIIAGLFALCWLPLHIINCFTFFCPDCSHAPLWLMYLAIVLSHTNSVVNPFIYAYRIREFRQTFRKIIRSHVLRQQEPFKAAGTSARVLAAHGSDGEQVSLRLNGHPPGVWANGSAPHPERRPNGYALGLVSGGSAQESQGNTGLPDVELLSHELKGVCPEPPGLDDPLAQDGAGVS [A54L T88A V239A K122A] | 12 °C and 10 °C and 9 °C
